Experimental data as given in the nanobody polyreactivity screen of Harvey et al. (2022).

Experiment: yeast display, Sf9 membrane polyspecificity reagent, FACS + sequencing; frameworks hold sequencing errors
Summary of the method: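 A nanobody's polyreactivity label depends on the gate it was sorted from. Yeast display cells were stained with 10% biotinylated, detergent-solubilized Sf9 membrane reagent for 1 hour at 4 °C, enriched on streptavidin microbeads and sorted by FACS. The low and high (top ~1%) gates were set on anti-HA fluorescence for expression and streptavidin fluorescence for reagent binding.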
In the case of “QVQLVESGGGLVQAGGSLRLSCAASGFTFGRYAMGWYRQAPGKERELVAAISFSGGRTYYADSVKGRFTISRDNAKNTVYLQMNSLKPEDTAVYYCAARRRQEHVGRSSYARYDYWGQGTQVTVSS”, the “polyreactivity (PSR sort gate)” value is reported as “high polyreactivity”. In the case of “QVQLVESGVGLVQAGGSLRLSCAASGRTFYVYAMGWYRQAPGKERELVAAISLGGGSTYYADSVKGRFTNSRDNGKNTVYLQMNSLKPEDTAVYYCAADITRYRLGRDYWGQATQVTVSS”, the “polyreactivity (PSR sort gate)” value is reported as “low polyreactivity”. With “QVQLVESGGGLVQAGGSLRLSCAASGRIFTYYTMGWYRQAPAKYREFVAAISWSGTSTYYADSVKGRFTISRDNAKNTFYLQMNSLKPEDTAVYYFAARDPPRAGYDYWGQGTHVTVSS” the “polyreactivity (PSR sort gate)” value was “high polyreactivity”. For “QVQLVESGGGLVQAGGSLRLSCAASGFIFDSYAMGCYRQAPGKETELVAAISYSGGNTYYADSVKGRFTISRDNAQITVYLQMNSLKPEDTAFYYCAAEWSDSRWWRLWWYGEDDYWGQGTQVTVSS”, the “polyreactivity (PSR sort gate)” value was “high polyreactivity”. With “QVHLVESGGGLVQAGGSLRLSCAASGSIFTSYAMGWYRQAPGKERELVAAITSGGSTNYADSVKGRFTISRDNAKNTVFLKMNSLKPEDTAVDYCAKDRPGQLRWWFLYGYWGQGTQVTVSS” the “polyreactivity (PSR sort gate)” value was “low polyreactivity”. For “QVQLVESGGGLVQAGGSLRLSCAASGSIFPDYAMGWYRQAPGKERELVAAITWRDDSTYFADSVKGRFTISRDNAKNTVYLQMNSLKPEDTAVYYCNASALDPLYAKDEYWGQGTQVTVSS”, the “polyreactivity (PSR sort gate)” value was “low polyreactivity”. For “QVQLVESVGGLVQAGGSLRLSCAASGSTFALNAMGWYRQAPGKERELVAAISYSGGSTYYADSVKGRFTISRDNAKNTVYLQINSLKPDDTAVYYCNAEVYFSGWVLYYYWGQGTQVTVSS”, the “polyreactivity (PSR sort gate)” value was “high polyreactivity”. For “QVQLVDSGGGLVQAGGSLRLSCPASGSTFQRYAMGWYRQAPGKERELVAAISSSGVRTYYADSVKGRFTISRDNAKNTVYLQMNSLKPEDTAVYYCATGYIFRYRQSAYDYWGQGTQVTVSS”, the “polyreactivity (PSR sort gate)” value was “high polyreactivity”. In the case of “QVQLVESGGGLVQAGGSLRLSCAASGFIFRWYAMGWYRQAPGKERELVAAITWRGGSTYADSVKGRFTISRDNAKNTVYLQMNSLKPEDTAVCYCAAETHRRYDYWGQGTQVTVSS”, the “polyreactivity (PSR sort gate)” value is reported as “high polyreactivity”. For “QVKLVESGVGLVQAGGSLRLSCAASGSTLTRNAMGWYRQAPGKERELVAAITQRGGSTYYADSVKGRFTLSRDNAKNTVYLQMNSLKPEDTAVYYCNVRAFHKQYSEYDYWGQGTQVTVSS”, the “polyreactivity (PSR sort gate)” value was “high polyreactivity”. With “QVQLVESGGGLVQAGGSHRLSSAASGSTFAKNAMGWYRQARGKESELVATISRGGSTNYADSVKGRFTISRDNAKNTVYLQMNSLKPEDTAVYYCNADRVRTAVYSYVYAYGIMNYSGQGTQVTVSS” the “polyreactivity (PSR sort gate)” value was “low polyreactivity”. For “QVQLVESGGGLVQAGGSLRLSCAASGFTFAPNAMGWYRQAPGKEMELVAAISSASSTYYADSVKGRFTISRDNAKNTVYLQMNSLKPEDTAVYYCAARVFKKYRPSGRYYYWGQGSQVTVSS”, the “polyreactivity (PSR sort gate)” value was “high polyreactivity”. In the case of “QDQLVESGGGLVQAGGSLRLSCAASGSIFTDYAMGWYRQAPAKERELVAAITSSGGSTYYADSVKGRFTISRDYAKNTVYLQMKSLKTEDTAVYYCAADRITIYDYWGQGTQVTVSS”, the “polyreactivity (PSR sort gate)” value is reported as “low polyreactivity”. With “QVQLVESRGGLVQAGGSLRLSCAASGFIFVSYTMGWYRQAPGKERDLVATITLSDGSTYYADSVQGRFTISRDNAKNTVYLQMNSLKPEDTAVYSGNKDKVVVRYDYWGQGTQVTVSS” the “polyreactivity (PSR sort gate)” value was “low polyreactivity”. In the case of “QVQLVESGGGLVQAGGSLRLSCAASGSIFGGYTMGWYRQAPGKERELVAAISRRGGNTYYADSVKGRFTISRDNAKNTVYLQMNSLKPEDTAVYYCAVRWPSARIPVKLDYWGQGTQVTVSS”, the “polyreactivity (PSR sort gate)” value is reported as “high polyreactivity”. For “QVQLVESGGGLVQAGGSLRLSCAASGRTFPVNAMGWYRQAPGKERELVASITYSGGSTYYADSVKGRFTISRDNAKNTVYLQMNSLKPEDTAVYYCAADWYRSPYDYWGQGTQVTVSS”, the “polyreactivity (PSR sort gate)” value was “low polyreactivity”. With “QVQLQESGGGLVQAGGGLRLSCAASGSILNQAPMGWYRQAPGKERELVATINEGSITNYADSVKGRFTISRDNAKNTVYLQMNSLKPEDTAVYYCAVNKYIGLDYHYWGQGTQVTVSS” the “polyreactivity (PSR sort gate)” value was “low polyreactivity”. With “QVQLVESGGGLVQAGGSLRLSCAASGRTFARHVMGWYCQAPGKVRELVAGITTSGGSTYYADSVKGRFTISRDNPKNTGYFQMNSLKPEDTAVYYCATDRQRYYRTVRSPIFNYWGQGTQVTVSS” the “polyreactivity (PSR sort gate)” value was “high polyreactivity”. For “QVQLVESGGGLVQAGGSLRLSCAASGSTFWVNAMGWYRQAPGKERELVAAITVRGTSTYYADSVKGRFTISRDNAKNTVYLQMNSLKPEDTAVYYCAADTPSNSHDYWGQGTQVTVSS”, the “polyreactivity (PSR sort gate)” value was “low polyreactivity”. In the case of “QVQLVESGGGLVQAGGSLRLSCAASGFIFIAYVMGWYRQAPGKERELVAAITRSGASTYYADSVKGRFTISRDNAKNTVYLQMNSLKPVDTAVYYCAARGAYSFYGYYYWGQGTQVTVSS”, the “polyreactivity (PSR sort gate)” value is reported as “high polyreactivity”. For “QVQLVESGGGLVQAGGSLRLSCAASGSTFGYYAMGWSRQAPGKERELVAAIRWSGGSTYADSVKGRFTISRDNAKNTVYLQMNSLKPEDTAVYYCAQYRWYGSVLGGYWGQGTQVTVSS”, the “polyreactivity (PSR sort gate)” value was “high polyreactivity”. With “QVQLVESGGGLVQAGGSLRLSCAASGFTFQTYAMGWYRQAPGKERELVATINSSGGGTYYADSVKGRFTISRDNAKNTVYLQMNSLKPEDTAVDYCAADAVWFVGQAFDISDSTTYGYWGQGTQVTVSS” the “polyreactivity (PSR sort gate)” value was “low polyreactivity”. For “QVQIEESGGGLVQAGGSHRLSCAASGSTSYWYAMGWSRQAPRKERELVAAISSDDSTNYADSVKGRFTISRDNAKNTVYLQMNSLKPEDTAVYYFNREHYLIRYDYWGQGTQVTVSS”, the “polyreactivity (PSR sort gate)” value was “low polyreactivity”. With “QVQLVESRGGLVQAGGSLRLSCADSGRIFWYYDMGCYRQAPWKDRELVAAITSGGRTYYADYVKGRFTISRDNAKNTVYLQMNSLKPEDTAVYYCAAEGFYTSGSPYSGGLDYWGQGTQVTVSS” the “polyreactivity (PSR sort gate)” value was “low polyreactivity”. In the case of “QVQLVESGGGLVQAGGSLRLSCAASGFTLGYNAMGWYRQAPGKERQLVAGITWSGGSTSYADSVKGRFTISRDNAKNTVYLQMNSLKPEDTAVYYCAKLRRYSGWLPWPYAYDYWGLGTQVTVSS”, the “polyreactivity (PSR sort gate)” value is reported as “high polyreactivity”. In the case of “QVQLVESGGGLVQAGGSLRLSCAASGRTFGGYAMGWYRQAPGKERELVAAISKSGGSTYYAVSVKGRFTISRDTAKNTVYLQMNSLKPEDTAVYYCAAQGSSYSTRVWRRYYYWGQGTQVTVSS”, the “polyreactivity (PSR sort gate)” value is reported as “high polyreactivity”. With “QVQLVESAGGLVQAGGSLRLSCAASGRTFHWYTMGWYRQAPGKEREFVAGINWSGARTYYADSVKGRFTISRDNAKNTVYLQMNSLKPEDTAVYYCAKRLWGIDFDYWGQGTQVTVSS” the “polyreactivity (PSR sort gate)” value was “high polyreactivity”. In the case of “QVQLVESGGGLVQAGGSLRLSCAASGNTFGKYGVGWYRQAPGKEREFVAAITSRGTSTYYADSVKGRFTISRDNEKNTVYLQMNSLKPEDTAVYYCNARPRYKYPRYDYWGQGTQVTVSS”, the “polyreactivity (PSR sort gate)” value is reported as “high polyreactivity”. With “QVQLVESGGGLVQAGGSLRLSCAASGRTIKYYAMGWYRQAPGKERELVAVISWSGGSTYYADSVKGRFTISRDNAKNTVYLQMNSLKPEDTAVYYCNAVHQYRRRYNYWGQGTQVTVSS” the “polyreactivity (PSR sort gate)” value was “high polyreactivity”. For “QVQLVESGGGLVQAGGSLRLSCAASGITLGTNAMGWYRQAPGKERELVAAIRRSGGSTYYADSVKGRFTISRDNAKNTVYLQMNSLKPEDTAVYYCAAVVSVNMYWGQGTQVTVSS”, the “polyreactivity (PSR sort gate)” value was “low polyreactivity”. With “QVQLVESGGGLVQAGGSLRLSCAASGFIFEAYAMGWYRQAPGKERELVAAIDSGGSTDYADSVKGRFTISRDNAKNTVYLQMNSLTPEDTAVYYCIAERAYLLWYNFDYWGQGTKVTVSS” the “polyreactivity (PSR sort gate)” value was “low polyreactivity”.
